Assay results reported in publication PMC12394453 (Signal Transduction and Targeted Therapy, 2025).

What was measured:
Conditions in all cases: both partners purified
[1] = target: NiV-G head domain (crystallisation construct, deglycosylated) (Nipah virus, NP_112027 / Q9IH62 …); assay: crystal structure
[2] = target: T1, HeV-G (wild-type Hendra virus attachment glycoprotein G, soluble recombinant) (Hendra virus, UniProt O89343); assay: SPR
T1 construct: source: Expi-293F, purified (StrepTrap HP)

[3] = target: deglycosylated NiV-G (N-linked glycans removed with PNGase F) (Nipah virus, Bangladesh isolate …, UniProt Q4VCP5, strain, N-linked glycans removed with PNGase F); assay: SPR; Biacore T200; antibody (0.5 μg/mL in HBS-EP+) […]; association 120 s, dissociation 900 s

B1: 14F8 Fab (Fab, V domains shown)
VH: QVQLKESGPGLVAPSQSLSITCTVSGFSLTSYDISWIRQPPGKGLEWLGVIWTGGVTNYNSAFLSRLSISKDNSKSQVFLKMNSLQTDDTAIYYCVREGDWFFDVWGAGTTVTVSS
VL: DVLMTQTPLSLPVSLGDQASISCRSSQSIVHSNGNTYLEWYLQKPGQSPQLLIYKVSNRFSGVPDRFSGSGSGTDFTLKINRVEAEDLGLYYCFQASHVPYTFGGGTKLEIK
notes: also called 14F8 Fab fragment
binding result [1]: binds

B2: chimeric antibody 14F8 (variable regions of mouse m14F8 on a human IgG1 constant region backbone) (antibody, V domains shown)
VH: QVQLKESGPGLVAPSQSLSITCTVSGFSLTSYDISWIRQPPGKGLEWLGVIWTGGVTNYNSAFLSRLSISKDNSKSQVFLKMNSLQTDDTAIYYCVREGDWFFDVWGAGTTVTVSS
VL: DVLMTQTPLSLPVSLGDQASISCRSSQSIVHSNGNTYLEWYLQKPGQSPQLLIYKVSNRFSGVPDRFSGSGSGTDFTLKINRVEAEDLGLYYCFQASHVPYTFGGGTKLEIK
notes: also called Humanized 14F8; m14F8 (mouse parent)
binding result [2]: no binding (tested: 100 nM) | binding result [3]: binds
